According to article doi:10.1101/251942:

Molecular target: Brucella adipic acid activated regulator (BaaR), residues 21-284 (Brucella abortus)
Assay: crystal structure

Substance: Brucella adipic acid activated regulator (BaaR), residues 21-284 (domain or fragment)
- stoichiometry N: 2
